Experimental data as given in the supplement of paper PMC10065799, “High-throughput profiling of sequence recognition by tyrosine kinases and SH2 domains using bacterial peptide display” (eLife, 2023).

Experiments:
AncSZ = experiment: phosphorylation enrichment, bacterial display (enrichment ratio); higher = better substrate or ligand; peptides without Tyr show the background
EPHB1 = EPHB1 (UniProt P54762); experiment: as above
EPHB2 = EPHB2 (UniProt P29323); experiment: as above
FGFR1 = FGFR1 (UniProt P11362); experiment: as above
FGFR3 = FGFR3 (UniProt P22607); experiment: as above
Fer (mouse) = experiment: as above
Fes = Fes (UniProt P07332); experiment: as above
Fyn = Fyn (UniProt P06241); experiment: as above
Hck = Hck (UniProt P08631); experiment: as above
Jak2 = Jak2 (UniProt O60674); experiment: as above
MERTK = MERTK (UniProt Q12866); experiment: as above
c-Abl (mouse) = experiment: as above
c-Src = experiment: as above
Grb2 SH2 = Grb2 SH2 (UniProt P62993); experiment: SH2 binding enrichment of the phosphorylated peptide, bacterial display (enrichment ratio); higher = better substrate or ligand; peptides without Tyr show the background
SHP2-C SH2 = experiment: as above
c-Src SH2 = experiment: as above
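Throughout, for SH2 binding enrichment of the phosphorylated peptide, bacterial display: peptide library displayed on the E. coli surface as eCPX fusions, selected cells deep-sequenced, score is each peptide's frequency after selection divided by its frequency in the input.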
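Throughout, for phosphorylation enrichment, bacterial display: 11-residue human phosphosite peptides and single-mutation variants displayed on the E. coli surface, counted by deep sequencing, each peptide's frequency after selection divided by its frequency in the unselected input library; frequency after pTyr selection over input frequency; kinase dosed for 20-30% of maximal phosphorylation in three min.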

Sequence of EPHB2 (P29323 whole entry, looked up): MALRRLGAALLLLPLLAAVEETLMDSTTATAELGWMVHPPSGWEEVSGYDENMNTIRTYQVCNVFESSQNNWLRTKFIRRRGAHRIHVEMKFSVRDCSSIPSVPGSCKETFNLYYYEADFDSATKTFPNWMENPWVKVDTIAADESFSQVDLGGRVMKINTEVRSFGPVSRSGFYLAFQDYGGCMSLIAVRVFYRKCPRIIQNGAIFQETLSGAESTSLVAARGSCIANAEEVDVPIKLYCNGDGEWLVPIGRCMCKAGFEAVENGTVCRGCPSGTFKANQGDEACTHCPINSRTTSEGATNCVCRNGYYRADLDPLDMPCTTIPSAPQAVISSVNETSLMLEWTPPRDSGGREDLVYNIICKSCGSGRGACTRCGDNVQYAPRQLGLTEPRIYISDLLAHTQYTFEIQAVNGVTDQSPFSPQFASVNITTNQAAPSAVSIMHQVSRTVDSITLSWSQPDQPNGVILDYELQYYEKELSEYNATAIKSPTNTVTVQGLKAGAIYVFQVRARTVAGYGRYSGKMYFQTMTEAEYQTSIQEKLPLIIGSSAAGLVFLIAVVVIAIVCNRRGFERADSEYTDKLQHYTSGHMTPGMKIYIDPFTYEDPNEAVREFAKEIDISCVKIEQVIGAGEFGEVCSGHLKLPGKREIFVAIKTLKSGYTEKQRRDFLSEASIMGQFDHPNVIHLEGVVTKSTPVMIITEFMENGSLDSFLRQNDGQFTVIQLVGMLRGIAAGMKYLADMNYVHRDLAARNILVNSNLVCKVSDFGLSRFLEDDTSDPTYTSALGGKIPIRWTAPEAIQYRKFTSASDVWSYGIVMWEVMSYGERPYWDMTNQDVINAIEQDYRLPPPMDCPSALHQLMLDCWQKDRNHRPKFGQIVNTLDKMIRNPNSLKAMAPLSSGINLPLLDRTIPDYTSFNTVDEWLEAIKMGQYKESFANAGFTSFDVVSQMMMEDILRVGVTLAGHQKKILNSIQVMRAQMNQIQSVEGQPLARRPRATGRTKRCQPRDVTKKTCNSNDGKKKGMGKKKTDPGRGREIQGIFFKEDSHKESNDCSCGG
Sequence of EPHB1 (P54762 whole entry, looked up): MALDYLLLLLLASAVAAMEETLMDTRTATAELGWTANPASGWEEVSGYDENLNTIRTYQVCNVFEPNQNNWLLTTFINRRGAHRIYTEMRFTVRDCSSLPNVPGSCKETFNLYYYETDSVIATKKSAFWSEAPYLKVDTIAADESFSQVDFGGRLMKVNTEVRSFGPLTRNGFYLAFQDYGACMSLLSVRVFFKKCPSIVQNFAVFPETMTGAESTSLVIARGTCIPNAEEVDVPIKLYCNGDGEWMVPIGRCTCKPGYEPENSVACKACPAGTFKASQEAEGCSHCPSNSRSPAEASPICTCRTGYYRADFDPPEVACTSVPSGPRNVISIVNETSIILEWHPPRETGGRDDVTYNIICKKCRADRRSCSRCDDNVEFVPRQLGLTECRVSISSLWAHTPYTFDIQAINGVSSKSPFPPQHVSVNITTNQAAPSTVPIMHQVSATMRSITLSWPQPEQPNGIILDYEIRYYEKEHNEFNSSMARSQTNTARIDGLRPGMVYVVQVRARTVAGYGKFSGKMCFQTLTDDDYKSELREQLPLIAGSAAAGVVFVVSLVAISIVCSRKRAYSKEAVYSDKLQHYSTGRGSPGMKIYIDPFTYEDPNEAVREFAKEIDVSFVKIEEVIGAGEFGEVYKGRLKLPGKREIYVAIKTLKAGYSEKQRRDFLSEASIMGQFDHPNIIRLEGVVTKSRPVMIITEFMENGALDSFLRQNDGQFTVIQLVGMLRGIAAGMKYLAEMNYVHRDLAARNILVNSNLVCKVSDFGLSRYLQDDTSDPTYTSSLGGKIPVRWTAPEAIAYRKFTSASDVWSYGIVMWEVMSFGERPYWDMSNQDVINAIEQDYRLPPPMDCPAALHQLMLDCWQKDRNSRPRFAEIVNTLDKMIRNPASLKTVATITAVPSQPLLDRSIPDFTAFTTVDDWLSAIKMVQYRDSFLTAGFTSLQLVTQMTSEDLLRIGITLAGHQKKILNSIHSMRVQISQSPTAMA
Sequence of FGFR1 (P11362 whole entry, looked up): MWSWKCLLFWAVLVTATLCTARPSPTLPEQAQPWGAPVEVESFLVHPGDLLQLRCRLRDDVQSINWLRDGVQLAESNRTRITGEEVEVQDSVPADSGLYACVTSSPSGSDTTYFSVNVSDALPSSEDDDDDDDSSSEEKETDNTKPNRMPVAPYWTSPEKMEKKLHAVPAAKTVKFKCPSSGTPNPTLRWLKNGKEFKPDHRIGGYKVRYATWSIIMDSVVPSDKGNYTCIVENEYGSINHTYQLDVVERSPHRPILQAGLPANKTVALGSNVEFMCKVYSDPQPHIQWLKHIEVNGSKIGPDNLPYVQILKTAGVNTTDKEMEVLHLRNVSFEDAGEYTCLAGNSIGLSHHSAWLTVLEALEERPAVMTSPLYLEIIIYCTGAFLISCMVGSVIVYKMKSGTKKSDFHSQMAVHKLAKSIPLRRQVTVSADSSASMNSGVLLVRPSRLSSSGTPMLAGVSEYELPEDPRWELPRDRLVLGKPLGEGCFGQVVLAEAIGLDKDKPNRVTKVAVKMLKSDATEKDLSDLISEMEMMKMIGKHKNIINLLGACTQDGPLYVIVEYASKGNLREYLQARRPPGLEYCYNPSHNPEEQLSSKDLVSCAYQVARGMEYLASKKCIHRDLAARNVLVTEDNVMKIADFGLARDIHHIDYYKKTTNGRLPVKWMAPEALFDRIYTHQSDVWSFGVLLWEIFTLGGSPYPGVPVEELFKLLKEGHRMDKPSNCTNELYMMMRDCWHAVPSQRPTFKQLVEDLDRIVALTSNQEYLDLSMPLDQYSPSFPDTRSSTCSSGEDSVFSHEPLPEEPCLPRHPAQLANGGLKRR
Sequence of MERTK (Q12866 whole entry, looked up): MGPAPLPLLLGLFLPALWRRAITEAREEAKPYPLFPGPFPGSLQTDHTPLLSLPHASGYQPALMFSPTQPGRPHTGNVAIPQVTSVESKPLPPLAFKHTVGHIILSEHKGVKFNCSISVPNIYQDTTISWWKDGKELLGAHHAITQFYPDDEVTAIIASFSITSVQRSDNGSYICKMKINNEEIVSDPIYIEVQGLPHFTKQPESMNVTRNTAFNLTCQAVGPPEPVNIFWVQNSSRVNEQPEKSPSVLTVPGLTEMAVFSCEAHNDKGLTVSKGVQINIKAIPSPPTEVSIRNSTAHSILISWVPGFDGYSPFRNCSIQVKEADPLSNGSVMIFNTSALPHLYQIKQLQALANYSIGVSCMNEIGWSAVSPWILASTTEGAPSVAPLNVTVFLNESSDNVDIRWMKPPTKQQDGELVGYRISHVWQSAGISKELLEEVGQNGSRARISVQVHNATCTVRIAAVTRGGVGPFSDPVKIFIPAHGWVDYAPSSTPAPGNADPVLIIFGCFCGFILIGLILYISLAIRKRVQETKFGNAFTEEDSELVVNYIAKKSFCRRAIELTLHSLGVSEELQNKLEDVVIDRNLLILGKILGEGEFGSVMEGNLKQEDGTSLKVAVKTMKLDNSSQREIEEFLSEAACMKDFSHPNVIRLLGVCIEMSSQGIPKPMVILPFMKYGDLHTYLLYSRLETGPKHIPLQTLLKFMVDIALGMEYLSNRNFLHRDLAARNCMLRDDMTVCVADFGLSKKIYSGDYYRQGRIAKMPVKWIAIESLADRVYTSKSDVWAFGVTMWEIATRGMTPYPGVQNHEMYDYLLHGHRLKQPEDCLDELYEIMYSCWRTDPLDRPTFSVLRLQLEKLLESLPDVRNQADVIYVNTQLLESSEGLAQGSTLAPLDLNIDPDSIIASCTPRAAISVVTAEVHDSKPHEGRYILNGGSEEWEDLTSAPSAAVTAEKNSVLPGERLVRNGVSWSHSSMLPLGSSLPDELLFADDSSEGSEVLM
Sequence of Jak2 (O60674 whole entry, looked up): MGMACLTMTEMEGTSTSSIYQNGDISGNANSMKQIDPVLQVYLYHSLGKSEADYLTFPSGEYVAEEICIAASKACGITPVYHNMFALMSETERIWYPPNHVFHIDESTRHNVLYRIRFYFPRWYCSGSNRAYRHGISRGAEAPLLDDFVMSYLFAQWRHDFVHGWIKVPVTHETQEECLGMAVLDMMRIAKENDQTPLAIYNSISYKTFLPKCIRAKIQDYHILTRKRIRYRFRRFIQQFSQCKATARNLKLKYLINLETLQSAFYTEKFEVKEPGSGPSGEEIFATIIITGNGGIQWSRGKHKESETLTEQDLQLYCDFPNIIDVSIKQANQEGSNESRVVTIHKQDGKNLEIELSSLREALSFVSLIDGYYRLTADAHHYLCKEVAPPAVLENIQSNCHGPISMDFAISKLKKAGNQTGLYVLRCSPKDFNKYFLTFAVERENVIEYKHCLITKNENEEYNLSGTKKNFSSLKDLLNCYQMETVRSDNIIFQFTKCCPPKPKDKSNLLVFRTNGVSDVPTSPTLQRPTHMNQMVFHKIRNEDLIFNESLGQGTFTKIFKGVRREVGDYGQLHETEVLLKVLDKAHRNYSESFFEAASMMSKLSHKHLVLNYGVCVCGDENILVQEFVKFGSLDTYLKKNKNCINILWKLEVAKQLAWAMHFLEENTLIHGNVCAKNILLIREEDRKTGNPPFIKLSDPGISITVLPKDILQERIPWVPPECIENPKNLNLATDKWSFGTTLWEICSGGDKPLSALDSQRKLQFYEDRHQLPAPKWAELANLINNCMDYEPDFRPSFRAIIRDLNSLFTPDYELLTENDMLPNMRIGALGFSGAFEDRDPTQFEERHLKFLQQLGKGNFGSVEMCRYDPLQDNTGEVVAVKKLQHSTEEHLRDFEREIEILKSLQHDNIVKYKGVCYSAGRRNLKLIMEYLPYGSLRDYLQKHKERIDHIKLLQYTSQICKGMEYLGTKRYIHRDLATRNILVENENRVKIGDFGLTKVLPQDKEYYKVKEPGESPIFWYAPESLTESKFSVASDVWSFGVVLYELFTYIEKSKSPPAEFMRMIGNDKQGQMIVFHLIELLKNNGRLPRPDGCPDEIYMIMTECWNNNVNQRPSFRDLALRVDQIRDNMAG

Sequence | phosphorylation enrichment (AncSZ) | phosphorylation enrichment (EPHB1) | phosphorylation enrichment (EPHB2) | phosphorylation enrichment (FGFR1) | phosphorylation enrichment (FGFR3) | phosphorylation enrichment (Fer (mouse)) | phosphorylation enrichment (Fes) | phosphorylation enrichment (Fyn) | phosphorylation enrichment (Hck) | phosphorylation enrichment (Jak2) | phosphorylation enrichment (MERTK) | phosphorylation enrichment (c-Abl (mouse)) | phosphorylation enrichment (c-Src) | SH2 binding enrichment (Grb2 SH2) | SH2 binding enrichment (SHP2-C SH2) | SH2 binding enrichment (c-Src SH2)
RRIEKYVDQGK [IRAK3_Y61_H57R] | 0.88 | 0.615 | 0.322 | 0.736 | 0.416 | 0.326 | 0.662 | 0.516 | 0.445 | 0.419 | 0.571 | 0.56 | 0.483 | 0.72 | 0.333 | 0.535
RRIHNYRGHLW [VHL_Y112_S111N] | 0.577 | 0.714 | 0.421 | 0.433 | 0.511 | 0.27 | 0.738 | 0.481 | 0.509 | 0.501 | 0.597 | 0.609 | 0.607 | 1.01 | 0.712 | 0.797
RSFLSYFTSHV [NEFL_Y442_P440L_YF] | 1.54 | 0.759 | 0.743 | 0.752 | 1 | 0.677 | 1.8 | 0.642 | 0.915 | 1.1 | 0.826 | 1.05 | 0.879 | 0.893 | 1.3 | 0.697
RSIGEYDVLRG [PRKDC_Y2936] | 0.795 | 0.738 | 0.779 | 0.36 | 0.394 | 0.428 | 0.786 | 0.671 | 3.99 | 0.73 | 0.536 | 1.55 | 0.974 | 0.662 | 0.587 | 1.65
RSRSPYSPVLR [CDK13_Y399] | 0.917 | 0.476 | 0.477 | 1.06 | 0.584 | 0.423 | 0.854 | 0.551 | 0.628 | 0.563 | 0.674 | 0.763 | 0.701 | 1.2 | 1.47 | 0.66
RSRSSYTHSLN [MYCT1_Y116_G119S] | 0.832 | 0.504 | 0.537 | 0.575 | 0.514 | 0.381 | 0.755 | 0.63 | 0.495 | 0.948 | 0.762 | 0.97 | 0.938 | 0.786 | 0.348 | 0.435
RVNSAYQEKVS [ACAN_Y100_D102E] | 0.407 | 0.413 | 0.397 | 0.678 | 0.423 | 0.313 | 0.667 | 0.378 | 0.49 | 0.538 | 0.5 | 0.489 | 0.291 | 1.08 | 0.529 | 0.448
RVSSVYTRSTG [CCR5_Y339_A335V] | 1.18 | 0.945 | 0.867 | 0.936 | 0.945 | 0.984 | 1.22 | 1.1 | 1.13 | 1.02 | 0.665 | 0.873 | 0.853 | 1.17 | 1.1 | 0.517
RYVSRYIYNRE [HLA-DQB1_Y62_T60S] | 1.29 | 0.922 | 0.95 | 0.658 | 0.739 | 0.844 | 1.11 | 0.829 | 0.551 | 0.92 | 0.993 | 0.666 | 1.08 | 0.659 | 0.245 | 0.368
RYVTRSIYNRE [HLA-DQB1_Y62_Y62S] | 0.772 | 0.226 | 0.389 | 0.622 | 0.327 | 0.495 | 1.1 | 0.553 | 0.682 | 1.1 | 0.601 | 0.735 | 0.705 | 0.802 | 0.94 | 0.543
SAAAIYTVRHP [PMP22_Y117] | 0.615 | 0.54 | 0.516 | 0.487 | 0.43 | 0.474 | 0.601 | 5.3 | 7.82 | 0.506 | 1.92 | 0.67 | 6.41 | 0.9 | 0.891 | 0.443
SAASGYSDVTD [DTX2_Y425_T421A] | 0.866 | 0.646 | 0.589 | 0.633 | 0.569 | 0.535 | 0.95 | 0.232 | 0.458 | 0.963 | 0.294 | 0.446 | 0.338 | 1.98 | 0.979 | 6.28
SADIAYNFRHG [PAH_Y166_F161S_YF] | 0.587 | 0.447 | 0.33 | 0.433 | 0.469 | 0.348 | 0.673 | 0.416 | 0.423 | 0.574 | 0.374 | 0.789 | 0.457 | 0.869 | 0.798 | 0.535
SCTFTCLLGDR [ETHE1_Y38_Y38C] | 0.916 | 0.45 | 0.536 | 0.488 | 0.669 | 0.458 | 1.03 | 0.458 | 0.414 | 0.84 | 0.465 | 0.737 | 0.387 | 1.01 | 0.98 | 0.945
SDPIIYTLENV [ADGRE1_Y534_I539V] | 1.1 | 0.5 | 0.576 | 0.577 | 0.663 | 5.1 | 1.38 | 7 | 1.61 | 0.945 | 1.09 | 0.723 | 4.92 | 0.88 | 0.682 | 0.554
SDQPDYDSVAS [GIT2_Y392_N387S] | 1.29 | 0.655 | 0.726 | 0.625 | 0.693 | 0.739 | 1.27 | 0.565 | 0.594 | 1.09 | 0.499 | 0.729 | 0.525 | 0.783 | 0.735 | 0.526
SDVNKYSTAFG [GJB3_Y16_G12D] | 0.521 | 0.467 | 0.387 | 0.348 | 0.459 | 0.462 | 0.67 | 0.42 | 0.386 | 0.451 | 0.393 | 0.509 | 0.361 | 0.777 | 0.553 | 0.617

Sequence | phosphorylation enrichment (AncSZ) | phosphorylation enrichment (EPHB1) | phosphorylation enrichment (EPHB2) | phosphorylation enrichment (FGFR1) | phosphorylation enrichment (FGFR3) | phosphorylation enrichment (Fer (mouse)) | phosphorylation enrichment (Fes) | phosphorylation enrichment (Fyn) | phosphorylation enrichment (Hck) | phosphorylation enrichment (Jak2) | phosphorylation enrichment (MERTK) | phosphorylation enrichment (c-Abl (mouse)) | phosphorylation enrichment (c-Src) | SH2 binding enrichment (Grb2 SH2) | SH2 binding enrichment (SHP2-C SH2) | SH2 binding enrichment (c-Src SH2)
SDYSRYARTSI [TERT_Y949_S948R] | 0.59 | 0.434 | 0.495 | 0.428 | 0.351 | 0.388 | 0.581 | 0.443 | 0.428 | 0.549 | 0.444 | 0.46 | 0.444 | 0.755 | 0.535 | 0.723
SDYYAYSPVQE [H6PD_Y449_R453Q] | 6.17 | 16.4 | 21.6 | 15.8 | 14.9 | 10.7 | 0.952 | 8.25 | 6.3 | 9.08 | 9.08 | 8.16 | 5.44 | 1.01 | 0.971 | 1.3
SEEVNYATLTF [CLEC12B_Y7_T6N] | 1.1 | 1.98 | 1.46 | 1.25 | 1.4 | 1.45 | 1.37 | 1.33 | 1.66 | 1.12 | 0.905 | 1.38 | 1.41 | 0.762 | 3.03 | 0.391
SESSYYKSLNL [NGEF_Y289_A286S] | 0.876 | 0.503 | 0.57 | 1.01 | 0.841 | 0.624 | 0.756 | 0.657 | 0.627 | 0.852 | 0.913 | 0.561 | 0.586 | 0.767 | 0.623 | 0.678
SFNNKYGMVAQ [APOB_Y276_K273N_YF] | 0.542 | 0.332 | 0.504 | 0.4 | 0.469 | 0.399 | 0.51 | 0.395 | 0.422 | 0.509 | 0.431 | 0.462 | 0.384 | 0.852 | 0.68 | 0.435
SGADSYEMEED [EGFR_Y316_C311S] | 1.29 | 0.574 | 0.585 | 0.822 | 0.871 | 0.52 | 1.16 | 0.625 | 0.668 | 1.12 | 0.722 | 0.749 | 0.561 | 0.979 | 0.701 | 0.728
SGDDGYAKDAQ [TENM4_Y1530_K1535Q] | 0.818 | 0.446 | 0.394 | 0.45 | 0.615 | 0.557 | 0.866 | 0.508 | 0.493 | 0.832 | 0.418 | 0.575 | 0.379 | 0.979 | 0.769 | 0.572
SGDVQYRSSVR [FREM2_Y2158_T2153S] | 0.442 | 0.472 | 0.332 | 0.378 | 0.432 | 0.377 | 0.608 | 0.375 | 0.378 | 0.396 | 0.348 | 0.481 | 0.364 | 0.812 | 0.883 | 0.514
SGGMDYGMVGG [TNRC6B_Y1382] | 0.571 | 0.471 | 0.806 | 0.404 | 0.494 | 0.389 | 0.574 | 2 | 0.702 | 0.517 | 0.384 | 0.52 | 1.95 | 0.765 | 0.765 | 0.401
SGPRRYTMAAL [TTR_Y125_I127M] | 0.677 | 0.396 | 0.466 | 0.423 | 0.459 | 0.383 | 0.611 | 0.416 | 0.488 | 0.601 | 0.44 | 0.555 | 0.533 | 0.787 | 0.505 | 0.487
SGSFRYGSSFE [SELE_Y390_C394F] | 0.692 | 0.463 | 0.438 | 0.419 | 0.528 | 0.484 | 0.686 | 0.526 | 0.389 | 0.629 | 0.426 | 0.489 | 0.425 | 0.627 | 0.52 | 0.564
SHSMRYFYTAV [HLA-C_Y31_D33Y] | 1.04 | 0.71 | 0.689 | 0.778 | 0.893 | 0.587 | 1.26 | 0.611 | 0.631 | 1.2 | 3.29 | 0.691 | 0.928 | 1.28 | 1.97 | 2
SIKDKYVTALF [KCNH2_Y611_YF] | 0.684 | 0.449 | 0.5 | 0.525 | 0.488 | 0.441 | 0.846 | 0.465 | 0.498 | 0.742 | 0.471 | 0.668 | 0.502 | 0.8 | 0.693 | 0.433
SIKHKYVTALF [KCNH2_Y611_D609H_YF] | 0.674 | 0.471 | 0.474 | 0.354 | 0.511 | 0.416 | 0.622 | 0.377 | 0.419 | 0.694 | 0.4 | 0.524 | 0.402 | 0.78 | 0.901 | 0.473
SISYDYCRVPM [BST2_Y8_T4I] | 3.91 | 11 | 9.95 | 7.84 | 5.46 | 3.87 | 1.17 | 0.965 | 2.62 | 3.05 | 2.98 | 1.03 | 1.17 | 1.01 | 0.705 | 0.831
SIVEDYRPPFY [ACVRL1_Y421_G416S] | 1.22 | 0.785 | 0.551 | 0.552 | 0.743 | 0.804 | 1.25 | 0.483 | 0.427 | 1.1 | 0.496 | 0.995 | 0.472 | 0.599 | 0.622 | 0.462
